Results: the supplement of paper PMC10567573
± gives the standard deviation.

Test: protein stability index of a GFP-peptide fusion (GPS, HEK-293T) (PSI 1-6); higher = more stable
[1] = treatment: DMSO, c terminus: a fixed tail appended
[2] = treatment: MLN4924 1 uM, 8 h, c terminus: a fixed tail appended
[3] = treatment: DMSO, c terminus: native
[4] = treatment: MLN4924 1 uM, 8 h, c terminus: native
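Note: 24-mer peptide tiles fused after GFP, lentivirally expressed, FACS-sorted into six equal bins by GFP/DsRed ratio, decoded by Illumina sequencing, PSI is the read-weighted mean bin number.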

Row | Sequence | protein stability index [1] | protein stability index [2] | protein stability index [3] | protein stability index [4]
1 | GVLEAPDTQVNPVGSVSVDCGPSR [FBXO34] | 5.03 ± 0.31 | 4.89 ± 0.6 | – | –
2 | NVISELNIEDYFSHHLAVYNSPQF [FBXO39] | 2.31 ± 0.29 | 2.32 ± 0.34 | – | –
3 | TTGPNPFTTLTDRELEEYRREVER [ADD1] | 5.08 ± 0.18 | 5.16 ± 0.21 | – | –
4 | GPAVVCGTPTSHVYMFKNGSGDSG [LYSMD4] | 3.7 ± 0.12 | 3.65 ± 0.33 | – | –
5 | HVKIVKLLLAHKADVNAQSSTGNT [ANKRD17] | 2.32 ± 0.26 | 2.36 ± 0.22 | – | –
6 | ENLFTGEDLDELEEELNTLDLEE [ZC3H15] | – | – | 4.26 ± 0.32 | 4.65 ± 0.32
7 | EDPSQQFLQQSLERVYSLQHLDPQ [INTS4] | 4.18 ± 0.17 | 4.42 ± 0.23 | – | –
8 | GFGDEDTGLELIAEESNPPLQDFP [MIA2] | 5.4 ± 0.34 | 5.23 ± 0.069 | – | –
9 | KLIQKKLLDKTCDQVMEFSWSALW [ZER1] | 2.41 ± 0.41 | 2.35 ± 0.2 | – | –
10 | TGGAAGAGGAGRGEDEENREHRVR [KCTD13] | 5.24 ± 0.26 | 5.53 ± 0.32 | – | –
11 | HVPNPPSGISFPSVVDHPMPEERA [HESX1] | 3.48 ± 0.74 | 3.99 ± 0.52 | – | –
12 | NTTVIPNGSMAMGTVPGQAPRLAV [LYSMD4] | 3.69 ± 0.32 | 3.5 ± 0.23 | – | –
13 | TYGQPKQAPPADFIPAHVAFDKKV [EFHC1] | 3.81 ± 0.34 | 4.16 ± 0.061 | – | –
14 | GRAVEHAMFLGDAAAHWYGGAEMR [MYORG] | 2.87 ± 0.34 | 3.14 ± 0.27 | – | –
15 | ASEPLPWDLRFRIIHETAVGMNFL [RIPK4] | 2.43 ± 0.15 | 2.33 ± 0.19 | – | –
16 | KRITASEALKHPWICQRSTVASMM [CAMK2D] | 2.61 ± 0.05 | 2.67 ± 0.27 | – | –
17 | VFFIYLYQRWIYRVDPTRVNEFGM [CLPTM1] | 2.96 ± 0.49 | 2.69 ± 0.055 | – | –
18 | VVGDNAVGKTRLICARACNATLTQ [RHOBTB2] | 2.63 ± 0.17 | 2.67 ± 0.14 | – | –
19 | QRHRDILQVIYWARDVFIITGVWV [GOSR1] | 2.72 ± 0.72 | 2.25 ± 0.73 | – | –
20 | VPAPEAFRDPIWSTWALYGRAVDQ [MYORG] | 2.66 ± 0.38 | 2.61 ± 0.34 | – | –
21 | PEEMATYLRYVRRLDFFEKPDYEY [CSNK1G1] | 2.34 ± 0.26 | 2.26 ± 0.55 | – | –
22 | QVNEINFENMSNDDAVRVLREIVH [DVL3] | 3.01 ± 0.16 | 3.09 ± 0.37 | – | –

Row | Sequence | protein stability index [1] | protein stability index [2] | protein stability index [3] | protein stability index [4]
23 | EISALNGNRINVPMVRKRSVSNST [DLC1] | 3.5 ± 0.071 | 3.5 ± 0.32 | – | –
24 | WEGFIGGFFSTVVFGFIAAYVLSK [CDS1] | 2.55 ± 0.54 | 3.08 ± 0.15 | – | –
25 | VPCYSKTQKLSKIETLRLAKNYIW [NEUROD6] | 2.43 ± 0.34 | 2.81 ± 0.58 | – | –
26 | AAIFSLFFVPLSYLLMVTVILLPY [TMEM175] | 2.91 ± 0.11 | 3.01 ± 0.53 | – | –
27 | YGPVEVISHWHPNITINIVDDHTP [CLPTM1] | 2.41 ± 0.23 | 2.54 ± 0.17 | – | –
28 | TNGELNTDDPTAGRSNAPITAPTE [CSNK1G3] | 5.41 ± 0.15 | 5.41 ± 0.16 | – | –
29 | SKIDALSSEKLNLQKDLETRPTQH [CEP70] | 4.71 ± 0.29 | 4.71 ± 0.073 | – | –
30 | KQFHNEVLKAHNEYRQKHGVPPLK [GLIPR2] | 3.79 ± 0.19 | 3.72 ± 0.17 | – | –
31 | RLLGTAGTEEKKKLIRDFDEKQQE [VTI1B] | 5.06 ± 0.15 | 5.11 ± 0.33 | – | –
32 | QPQQGYIPPMAQPGLPPVPGAPGM [ZNF207] | 4.36 ± 0.068 | 4.47 ± 0.28 | – | –
33 | PVIKIPECPSMGTNEAACLLDNPL [RHOBTB1] | 4.33 ± 0.16 | 4.41 ± 0.24 | – | –
34 | LGFRAFSGSGNRLDGKKKGVEPSP [UFD1] | 4.25 ± 0.46 | 3.94 ± 0.29 | – | –
35 | VAFRGLKGKKLYPVVSAVWGHCEI [SPSB1] | 2.62 ± 0.13 | 3.16 ± 0.071 | – | –
36 | HPFFFALGKILSVELGKQKKKYMP [FADS1] | – | 1.89 ± 0.5 | – | –
37 | APGPSRIADYLLLPLAEREHVSRA [TRIB1] | 3 ± 0.46 | 3.38 ± 0.77 | – | –
38 | NCTLIISYQKPKEVVVAESELQKE [DPCD] | 2.18 ± 0.19 | 2.49 ± 0.2 | – | –
39 | ATWMLEVCEEQKCEEEVFPLAMNY [CCND1] | 3.61 ± 0.16 | 3.77 ± 0.25 | – | –
40 | LQNEAQKRESFLKYKCLLQQLYYT [IQUB] | 2.16 ± 0.43 | 2.24 ± 0.21 | – | –
41 | KFYTWLWGVFYYFVSALGITAGAH [SCD] | 2.253 ± 0.003 | 2.84 ± 1.1 | – | –
42 | AYSLNKIHAYNLGTNAWEEIATKP [KLHDC10] | 2.56 ± 0.39 | 2.79 ± 0.57 | – | –
43 | SLTDISQPTIVEALLGYEMVQVAC [NEK8] | 2.73 ± 0.64 | 2.4 ± 0.5 | – | –
44 | GWCSGDAISSVERYDPQTNEWRMV [KLHL20] | 2.84 ± 0.24 | 2.95 ± 0.34 | – | –

Row | Sequence | protein stability index [1] | protein stability index [2] | protein stability index [3] | protein stability index [4]
45 | EYVHSKNLIYRDVKPENFLIGRPG [CSNK1G3] | 2.79 ± 0.32 | 2.78 ± 0.32 | – | –
46 | TKITSKHVKMMLSGVCLFAVFIAL [PTGFR] | 3.2 ± 0.24 | 2.78 ± 0.1 | – | –
47 | KEATVPCTEILTEKKDTITNDSLS [MIA2] | – | 5.49 ± 0.15 | – | –
48 | GFWQLPPPATQNTFGNSTLALGPG [PLAGL1] | 3.17 ± 0.15 | 3.29 ± 0.35 | – | –
49 | RQETVDCLKKFNARRKLKGAILTT [CAMK2A] | 3.15 ± 0.26 | 3.33 ± 0.24 | – | –
50 | PASEKKPVPPSEGKSRLSPAGEMK [BCL2L13] | 5.28 ± 0.19 | 5.27 ± 0.084 | – | –
51 | PQQGFFSSFFTCNQKCQLRLLKTL [ATP23] | 2.36 ± 0.4 | 2.13 ± 0.3 | – | –
52 | TDHILESLYRDIRDIQDENQLLVA [STX11] | 3.22 ± 0.3 | 3.24 ± 0.39 | – | –
53 | VDQMNRIVEVLGIPPAAMLDQAPK [DYRK1B] | 3.62 ± 0.25 | 3.52 ± 0.15 | – | –
54 | LAVRSLRRVGGSRILLRMTLGREV [NLN] | 2.73 ± 0.68 | 2.37 ± 0.55 | – | –
55 | SLELDKMAHGYGEESEEERGLEPG [CHGB] | 5.49 ± 0.46 | 5.41 ± 0.19 | – | –
56 | PGLPPVPGAPGMPPGIPPLMPGVP [ZNF207] | 4.41 ± 0.2 | 4.5 ± 0.24 | – | –
57 | SIDKDEEFAGSSPQSSKSTVVKSL [FAN1] | 5.165 ± 0.042 | 5.27 ± 0.27 | – | –
58 | SGEEFYMLTRRVLQLETVLEGVVS [PKD2L1] | 2.17 ± 0.45 | 2.56 ± 0.17 | – | –
59 | SLKFKSRVPQTWSKRLYGVYDNEK [PLD5] | 2.55 ± 0.39 | 2.71 ± 0.74 | – | –
60 | LSYNLYDLLRNTHFRGVSLNLTRK [DYRK1B] | 2.28 ± 0.36 | 2.15 ± 0.09 | – | –
61 | SRRDESYSRGYRNRRSSRETREYA [RBMY1A1] | 4.5 ± 0.32 | 4.64 ± 0.31 | – | –
62 | HSLQQSEPDLRHLVLVVNTLRRIQ [SERTAD1] | 2.44 ± 0.33 | 2.61 ± 0.17 | – | –
63 | TGLVYDQNMMNHCNLWDSHHPEVP [HDAC6] | 3.08 ± 0.29 | 3.25 ± 0.18 | – | –
64 | PNVYPAAPQGGMAALNMSLGMVTP [ADD1] | 3.26 ± 0.28 | 3.25 ± 0.21 | – | –
65 | EDQYQFSYRAALEYLGSFDHYAT [PTPRD] | – | – | 2.61 ± 0.49 | 2.69 ± 0.34
